Measured values taken from the supplement of paper PMC9170038.

system: MS2 coat protein; assay: apparent KD of MS2 coat protein, switch OFF state (with FMN for OFF switches, without FMN for ON switches); designed switch direction (-1 OFF switch, 1 ON switch): -1; higher = weaker reporter binding; details: FMN input: 0 or 200 uM; Eterna round: R93 (includes R88 designs)
Procedure, shortened: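 Designed RNA switches were made by on-chip transcription from Illumina sequencing clusters and then titrated with SNAP-549-labelled MS2 coat protein. Twofold steps ran from 0.7 or 1.5 nM to 3 µM, each lasting 0.8–1.5 h early and 10–20 min late, in 100 mM Tris-HCl pH 7.5, 80 mM KCl, 4 mM MgCl2, without or with constant ligand. Apparent KD is the per-design median of normalised cluster binding-curve fits.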

| Sequence | apparent KD of MS2 coat protein |
| --- | --- |
| AAGAGUAGAGGAUAUACAUAAAAAGAGUCGAAAGACUCGGGACAUGAGGAUCACCCAUGUAGAAGGCUACUCAA [Hyphema Seclusion Mod 62% 4] | 406 nM |
| AACAGUACAGGAUAUACAUGAGGAUCACCCAUGUAAAGGGAAAGUGGCGUACCACAAAGUAGAAGGGUACUGGA [Moding Maslow revisited (73) 5] | 175 nM |
| AGCACGUCAGGAUAUACGAAAAAAAAGGGAAACAACAAGGGACAUGAGGAUCACCCAUGUAGAAGGGACUAGCA [Diamond 97] | 44.3 nM |
| AAAAAAGCAGGAUAUACGAACAUGUCAAAAGACGUGAAGGGACAUGAGGAUCACCCAUGUAGAAGGGUUAAAAA [JL Stem Breaker 5] | 53.6 nM |
| AAGAAACAUGAGGAUCACCCAUGUGAGGAUAUCCAAGAAAGAAAGAAAGAAAGAAGAAGGAGAAGGCACAAAGG [Quintus Ostorius Scapula] | 119 nM |
| CACGUACAUGAGGAUCACCCAUGUUAGGAUAUGCCGGGUAAGAGAAAACAAAAAAUCAGCAGAAGGAACGAAAC [Bilbo Confounded 18 - Jieux - Exclusion 1] | 28.5 nM |
| AAGAAGCGAGGAUAUACAUGAAAGAAAGAAAAGAAAAGAAAACAUGAGGAUCACCCAUGUAGAAGGCGCAAGAA [EteRNA is fun!] | 28.2 nM |
| AAGAAGCGAGGAUAUACAUGAGGAUCACCCAUGUAAAAGAAAGAAGGGAAAGAGAAAAGUAGAAGGCGCAAGAA [Hedjkheperre-setpenre Takelot II] | 109 nM |
| AAAAAUCGAGGAUAUACAUGAGGAUCACCCAUGUUAGAAAAUGAUUACACAAAAGAAAGUAGAAGGCGAUAAAA [Ex 3 May 20] | 23.4 nM |
| CCAGAUGCAGGAUAUACAUGAGGAUCACCCAUGUGGCACACACCCACCCACAGCACCCGUAGAAGGGCAGCACG [Halfast on Cytosine - Jieux - Exclusion 3] | 25.9 nM |
| AACUAGUGAGGAUAUACAAGAAAAAAAAAAAAAAUAAAGGGACAUGAGGAUCACCCAUGUAGAAGGCACUAACA [Diamond 69] | 64.9 nM |
| AUAAAACAUGAGGAUCACCCAUGUGAGGAUAUGCUAAAAUAAAAUAAAAUAAAAUAAUGCAGAAGGCACAAAUA [Fancy Pants] | 53.8 nM |
| CUCAUGUCAGGAUAUCAGUAGUAAAAAAAAAAAAUUACUACUGAGAAGGGACAUGAGGAUCACCCAUGUACCUU [EX4 302: Super Stable 2] | 29.1 nM |
| AAAAAGCGAGGAUAUACGAGUCAAAGAAAAGACAAGGAGAAACAUGAGGAUCACCCAUGUAGAAGGCGCAAAAA [Fiskers exclusion D2] | 25.3 nM |
| AUAGUACAUGAGGAUCACCCAUGUCAGGAUAUGCGAAACGAAAAAAAAAAAAAGUGAAGUAGAAGGGACUAUAA [EX1 Malc#9] | 30.4 nM |
| AAAAAUGGAGGAUAUACAUGAGGAUCACCCAUGUGUAACUAUACAAAACACAAAAAAAGUAGAAGGCCAAAAAA [Gilly Gone Silly 7 - Jieux - Exclusion 3] | 19.3 nM |
| AACUGACAUGAGGAUCACCCAUGUCAGGAUAUGCUUCAUAAAAAGAAAUAAAAAUGAUGCAGAAGGGAUAUGGG [Design 34 :P Sub-opt 10] | 37.1 nM |
| AAAUAGUUAGGAUAUACAUGAGGAUCACCCAUGUGCACUUAUGGAGAAUAGUGUAAUGGUAGAAGGGACUAAAA [EX2 Malc#23] | 94.6 nM |
| ACGUCGGGAGGAUAUACAUGAGGAUCACCCAUGUAAAGCGGGAAAGACGUUUAGUCGAGUAGAAGGCCUGAAGU [JR_Exc003_Sub1709] | 45.5 nM |
| GGAAAACAUGAGGAUCACCCAUGUGAGGAUAUCGAUGUCCAAACCAAAGUGCGGGACUCGAGAAGGCACUUGGA [salish99-ex1-37] | 28.6 nM |
| AUUAUGUCAGGAUAUCAGUAGUAAAAAAAAAAAAUUACUACUGAGAAGGGACAUGAGGAUCACCCAUGUCAAAA [EX4 308: Super Stable 8] | 34 nM |
| AAAUAACAUGAGGAUCACCCAUGUUAGGAUAUCUAAAUGGUGUAAACACCAGAAGAUGAGAGAAGGGACGUGGA [Enlalees] | 25.1 nM |

| Sequence | apparent KD of MS2 coat protein |
| --- | --- |
| GAAGAACAUGAGGAUCACCCAUGUCAGGAUAUACAGAAGGGAAUAAUAUAACCUGAAAGUAGAAGGGACAAGAA [Ex 1 May 43] | 46.2 nM |
| AGAAAACAUGAGGAUCACCCAUGUGAGGAUAUCGAUGUCCAAAAAAAAGUGCGGGACUCGAGAAGGCACUUGGG | 33.7 nM |
| AAAAAACAUGAGGAUCACCCAUGUAAGGAUAUGCUAAAAAACACGGAAAAACGUGAUAGCAGAAGGUACAAAAG [Mat - Exclusion 1 - Eli mod - D87] | 31.2 nM |
| AAGAACGAAGGAUAUACAUGAGGAUCACCCAUGUAAAAGAAAGAGGGAAAAGAGAAAAGUAGAAGGUCGAAGAA [Ptolemy VIII Euergetes II] | 23.8 nM |
| AGGGAGUAAGGAUAUGCAUAUAAUGAAGAGAAAGAAAAGAAGCAGAAGGUACAUGAGGAUCACCCAUGUAAAAA [milkweed 2] | 22.7 nM |
| AAAAAGUGAGGAUAUACGUUGAAAAAAAAAAAAAAAAAGGCGUAGAAGGCACAUGAGGAUCACCCAUGUAAAAA [Ex4 Malc#5] | 77.4 nM |
| AAAAAAAAAGGAUAUACAGGAGGUAAGGUCGAAAAAAAAAAACAUGAGGAUCACCCAUGUAGAAGGUUUAAAAA [Excls2-VIII] | 30.6 nM |
| GGAUGUGUAGGAUAUACAUGAGGAUCACCCAUGUGAGAGAAAAAAGUGAGAAAGAAAAGUAGAAGGACGUGUCG [salish99-ex3-89] | 38 nM |
| CGUCCACAUGAGGAUCACCCAUGUUAGGAUAUCUAUACUAAAUACAAAACCCAAGUCAAGAGAAGGAGCAGGGC [Teteeresve] | 12 nM |
| AAAAAACAUGAGGAUCACCCAUGUGAGGAUAUGACGUAAAUAAAGAAAGAAGAAAUCGUCAGAAGGCACACCUA [Disincluded 2 (MS2 Riboswitches)] | 45.7 nM |
| AAAAAGUGAGGAUAUGUCAAAGGUCACGAAAGUGACAAAGGACAGAAGGCACAUGAGGAUCACCCAUGUGGAAA [Fiskers Exclusion 4D1 65% - Early + late G segment 3] | 27.6 nM |
| AGUGAGUGAGGAUAUGCUAGAAGAAUAAAAGAAAUAACGUAGCAGAAGGCACAUGAGGAUCACCCAUGUACACA [May 66] | 22.5 nM |
| AGCUAGUCAGGAUAUACGAGAAAGAAAGAAGACGUGAAGGGACAUGAGGAUCACCCAUGUAGAAGGGACUAGCA [Diamond 26] | 67.1 nM |
| AAAAAUGGAGGAUAUACAUGAGGAUCACCCAUGUGUAAAAAAAAUUACACAAAAGAAAGUAGAAGGCCAUAAAG [Mat - Exclusion 3 - Mayanna mod - D108] | 139 nM |
| AAAAAUCGAGGAUAUACAUGAGGAUCACCCAUGUCAAAAAAUGACUACACAAAAGAAAGUAGAAGGCGAUAAAA [Ex 3 May 17] | 31 nM |
| AACAGUACAGGAUAUACAUGAGGAUCACCCAUGUGAGAAACCAGUGGCGUACCACAAAGUAGAAGGGUACUGGA [Moding Maslow Revisited (73) 28] | 185 nM |
| AAAAAGUCAGGAUAUGCGAAGGCGUCUGAUAGACGAGGCUAGCAGAAGGGACAUGAGGAUCACCCAUGUAAAGA [Mat - Exclusion 4 - D82] | 51.3 nM |
| AAAAAGUGAGGAUAUGGUAAAAAAAAAAAAAAAAAAAACCUCCAGAAGGCACAUGAGGAUCACCCAUGUAAAAA [Jolly's Folly 2 - Jieux - Exclusion 4] | 34.6 nM |
| AGAAAGUCAGGAUAUACGAAAAAAAAGGGAAACAACAAGGGACAUGAGGAUCACCCAUGUAGAAGGGACAAGAA [Diamond 98] | 140 nM |
| AAGGUAUAAGGAUAUGCAUAGAUACAGACACAUGUUCAAGUACAUGAGGAUCACCCAUGUAGAAGGUAUAUAUA [AJ 12] | 26 nM |
| AAAAUGUCAGGAUAUGUAGCAUGAUACGAAAGUAUCAUGCUACAGAAGGGACAUGAGGAUCACCCAUGUGAUCA [Ex4: 939] | 45 nM |
| AGUUGGCGAGGAUAUACAUGAGGAUCACCCAUGUGAAAGAAAAAAGUGAAAAAGCAAAGUAGAAGGCGCUGACA [73%, Moding Norbert Elias, 5] | 192 nM |
